Experiment [1] concerns the target acetylcholine receptor. Kind of experiment: SPR, AchR immobilized on CM5 chip, peptide 10 uM. Background: In SPR one partner is held on a chip, and binding of the other changes the refractive index at the surface.
Experiment [2] deals with acetylcholine receptor. Kind of experiment: SPR, receptor on CM5 chip, peptide 10 µM.

This is an account of results in patent US20250011363A1, “OPTIMIZED SHORTENED PEPTIDE THAT BINDS TO ACETYLCHOLINE RECEPTOR, AND USE THEREOF” (SKINMED CO., LTD., priority 2021, published 2025).

In experiment [1], KRRQTR [6mer-1-357] returned a Binding affinity (RU) of 148 RU. Consider RKVICK [6mer-1-384], for which the Binding affinity (RU) in experiment [1] amounted to 148 RU. The same measure, in the same setting: in the case of KKRICK [6mer-1-365] it was 142 RU; in that of RKRQSK [6mer-1-364], 124 RU.

In experiment [1], KRGVLK [6mer-1-373] gave a Binding affinity (RU) of 149 RU. KKRFSR [6mer-1-516] showed a Binding affinity (RU) in experiment [2] of 139 RU.

Molecule KRRYTR [6mer-1-358] came in with a Binding affinity (RU) in experiment [1] of 124 RU. With KRLLCK [6mer-1-340], in experiment [1], the Binding affinity (RU) was determined as 142 RU. On the same count and under the same terms, in the case of KKRIYR [6mer-1-346] it was 123 RU. For the molecule RKLRSK [6mer-1-372], the Binding affinity (RU) in experiment [1] came to 145 RU.

Regarding RRQLRK [6mer-1-376], the Binding affinity (RU) in experiment [1] amounted to 121 RU.

In experiment [1], KRGYSK [6mer-1-356] gave a Binding affinity (RU) of 153 RU.

As to RKRRTK [6mer-1-383], in experiment [1], the Binding affinity (RU) was 148 RU. In experiment [2], KRRQCK [6mer-1-519] showed a Binding affinity (RU) of 147 RU.

Consider KKGRQK [6mer-1-524], for which the Binding affinity (RU) in experiment [2] came to 148 RU. In the case of KRWVLK [6mer-1-518], the Binding affinity (RU) in experiment [2] is 153 RU. KRQIYK [6mer-1-520] gave a Binding affinity (RU) in experiment [2] of 127 RU. RRSQRR [6mer-1-335]: in experiment [1], the Binding affinity (RU) stood at 148 RU. Regarding KRLYLK [6mer-1-353], in experiment [1], the Binding affinity (RU) was 126 RU. In turn, KKRLCR [6mer-1-534] registered a Binding affinity (RU) in experiment [2] of 126 RU. In the case of KKLLCR [6mer-1-345], the Binding affinity (RU) in experiment [1] amounted to 147 RU. With KKQFQK [6mer-1-374], in experiment [1], the Binding affinity (RU) turned out to be 148 RU. Same read-out and setting: in the case of RKQQQR [6mer-1-341] it was 128 RU. In experiment [1], KKWYRK [6mer-1-369] registered a Binding affinity (RU) of 144 RU. In the case of KRLYSK [6mer-1-349], the Binding affinity (RU) in experiment [1] was 123 RU. In experiment [1], KKQVLK [6mer-1-338] yielded a Binding affinity (RU) of 127 RU. For KRQFLR [6mer-1-359], in experiment [1], the Binding affinity (RU) was determined as 131 RU.

As to RKSRRR [6mer-1-337], the Binding affinity (RU) in experiment [1] was 144 RU. On to RKVFRK [6mer-1-352], for which, in experiment [1], the Binding affinity (RU) turned out to be 142 RU. In experiment [1], KKVFLK [6mer-1-354] returned a Binding affinity (RU) of 153 RU.

In experiment [1], KRVFLK [6mer-1-360] returned a Binding affinity (RU) of 148 RU. In experiment [2], KRLVSK [6mer-1-530] yielded a Binding affinity (RU) of 137 RU.

For the molecule KKGIYR [6mer-1-527], the Binding affinity (RU) in experiment [2] turned out to be 142 RU. In experiment [1], KRQIRR [6mer-1-363] showed a Binding affinity (RU) of 121 RU.

With KKQQSK [6mer-1-347], in experiment [1], the Binding affinity (RU) stood at 126 RU. As to RKRFCR [6mer-1-342], the Binding affinity (RU) in experiment [1] turned out to be 131 RU. KKSIQK [6mer-1-339]: the Binding affinity (RU) in experiment [1] was found to be 147 RU. KRGYTR [6mer-1-526] showed a Binding affinity (RU) in experiment [2] of 148 RU.

Turning to RKGQTK [6mer-1-531], the Binding affinity (RU) in experiment [2] was found to be 135 RU. In the case of KRRRSK [6mer-1-523], in experiment [2], the Binding affinity (RU) worked out at 139 RU. Regarding RRRFSK [6mer-1-368], in experiment [1], the Binding affinity (RU) came to 145 RU. In the case of RKGFSK [6mer-1-367], the Binding affinity (RU) in experiment [1] came to 154 RU. Molecule KRVVYK [6mer-1-362] had a Binding affinity (RU) in experiment [1] of 133 RU. Take KKLQTK [6mer-1-350]: the Binding affinity (RU) in experiment [1] turned out to be 153 RU. Molecule KRQVLR [6mer-1-385] registered a Binding affinity (RU) in experiment [1] of 127 RU.

Take KRQYTR [6mer-1-382]: in experiment [1], the Binding affinity (RU) came out at 139 RU. Turning to RKVFYR [6mer-1-355], in experiment [1], the Binding affinity (RU) came to 148 RU. Consider RRGLSR [6mer-1-515], for which, in experiment [2], the Binding affinity (RU) was found to be 139 RU.

In experiment [1], RRVFYR [6mer-1-375] yielded a Binding affinity (RU) of 154 RU. Molecule RRGLRK [6mer-1-351] had a Binding affinity (RU) in experiment [1] of 141 RU.

KKLYTK [6mer-1-343]: in experiment [1], the Binding affinity (RU) is 135 RU. Consider RRQLRR [6mer-1-525], for which the Binding affinity (RU) in experiment [2] came out at 139 RU. The molecule KRWITR [6mer-1-377] had a Binding affinity (RU) in experiment [1] of 148 RU.

Regarding RKSVQR [6mer-1-361], the Binding affinity (RU) in experiment [1] came to 127 RU. With RRSLCK [6mer-1-529], in experiment [2], the Binding affinity (RU) was found to be 139 RU. KKSQLR [6mer-1-532] gave a Binding affinity (RU) in experiment [2] of 121 RU. Molecule KRSLQK [6mer-1-378] yielded a Binding affinity (RU) in experiment [1] of 153 RU. The same measure, in the same setting: as for RKQLYK [6mer-1-370], the figure is 142 RU. Take KKGLCK [6mer-1-517]: the Binding affinity (RU) in experiment [2] is 139 RU. As for KRVVTK [6mer-1-336], the Binding affinity (RU) in experiment [1] came to 154 RU. The molecule KRRISK [6mer-1-379] yielded a Binding affinity (RU) in experiment [1] of 153 RU. In turn, RKRRLR [6mer-1-522] came in with a Binding affinity (RU) in experiment [2] of 126 RU.

In the case of RKGFYR [6mer-1-381], the Binding affinity (RU) in experiment [1] is 124 RU. Same read-out and setting: in the case of KKSQCR [6mer-1-344] it was 125 RU; in that of KRWFCR [6mer-1-366], 133 RU.

Turning to KRSYTR [6mer-1-528], the Binding affinity (RU) in experiment [2] was found to be 139 RU. For the molecule RKVISR [6mer-1-521], the Binding affinity (RU) in experiment [2] is 128 RU. Same read-out and setting: in the case of RKWFSR [6mer-1-533] it was 145 RU. In turn, RKQRLK [6mer-1-348] came in with a Binding affinity (RU) in experiment [1] of 142 RU. For KRSLTR [6mer-1-371], in experiment [1], the Binding affinity (RU) came to 153 RU. KRLQLR [6mer-1-380]: the Binding affinity (RU) in experiment [1] is 121 RU.
